In PMC13155533, “The secreted protein PCYOX1L controls the surface expression of acid-sensing ion channel 1a” (Science Advances, 2025):

B1: rat ASIC1a-GFP (natural protein, UniProt P55926-1 1-526, looked up)
chain: MELKTEEEEVGGVQPVSIQAFASSSTLHGLAHIFSYERLSLKRALWALCFLGSLAVLLCVCTERVQYYFCYHHVTKLDEVAASQLTFPAVTLCNLNEFRFSQVSKNDLYHAGELLALLNNRYEIPDTQMADEKQLEILQDKANFRSFKPKPFNMREFYDRAGHDIRDMLLSCHFRGEACSAEDFKVVFTRYGKCYTFNSGQDGRPRLKTMKGGTGNGLEIMLDIQQDEYLPVWGETDETSFEAGIKVQIHSQDEPPFIDQLGFGVAPGFQTFVSCQEQRLIYLPSPWGTCNAVTMDSDFFDSYSITACRIDCETRYLVENCNCRMVHMPGDAPYCTPEQYKECADPALDFLVEKDQEYCVCEMPCNLTRYGKELSMVKIPSKASAKYLAKKFNKSEQYIGENILVLDIFFEVLNYETIEQKKAYEIAGLLGDIGGQMGLFIGASILTVLELFDYAYEVIKHRLCRRGKCQKEAKRSSADKGVALSLDDVKRHNPCESLRGHPAGMTYAANILPHHPARGTFEDFTC
notes: ASIC1a, rat, in pEGFP-N1; the methods say that rat ASIC1a was used for coexpression with PCYOX1L in HEK293 cells; The vector pEGFP-N1 would put GFP at the C-terminus; source: HEK cells, transfected, in digitonin lysate
B2: rat ASIC2a-GFP (natural protein, UniProt Q62962-1 1-512, looked up)
chain: MDLKESPSEGSLQPSSIQIFANTSTLHGIRHIFVYGPLTIRRVLWAVAFVGSLGLLLVESSERVSYYFSYQHVTKVDEVVAQSLVFPAVTLCNLNGFRFSRLTTNDLYHAGELLALLDVNLQIPDPHLADPTVLEALRQKANFKHYKPKQFSMLEFLHRVGHDLKDMMLYCKFKGQECGHQDFTTVFTKYGKCYMFNSGEDGKPLLTTVKGGTGNGLEIMLDIQQDEYLPIWGETEETTFEAGVKVQIHSQSEPPFIQELGFGVAPGFQTFVATQEQRLTYLPPPWGECRSSEMGLDFFPVYSITACRIDCETRYIVENCNCRMVHMPGDAPFCTPEQHKECAEPALGLLAEKDSNYCLCRTPCNLTRYNKELSMVKIPSKTSAKYLEKKFNKSEKYISENILVLDIFFEALNYETIEQKKAYEVAALLGDIGGQMGLFIGASLLTILELFDYIYELIKEKLLDLLGKEEEEGSHDENMSTCDTMPNHSETISHTVNVPLQTALGTLEEIAC
notes: ASIC2a, rat, in pEGFP-N1; In the functional row the untagged rat ASIC2a (pcDNA3.1) was used; source: HEK cells, transfected, in digitonin lysate

Key:
[1] = target: the molecule itself; experiment: native gel or EMSA; high-resolution clear native PAGE (4 to 16%) of GFP-tagged proteins from 1% digitonin lysates of transfected HEK cells, GFP fluorescence scan; ASIC1a-GFP coexpressed with PCYOX1L-GFP
[2] = target: the molecule itself; experiment: native gel or EMSA; high-resolution clear native PAGE (4 to 16%) of GFP-tagged proteins from 1% digitonin lysates of transfected HEK cells, GFP fluorescence scan; without coexpressed PCYOX1L

| Protein | stoichiometry N [1] | stoichiometry N [2] |
| --- | --- | --- |
| B1 | 3 | – |
| B2 | – | 3 |
